Laboratory results published in paper PMC5415106, “Dpb11 may function with RPA and DNA to initiate DNA replication”.

Experiments:
[1] = molecular target: T1, Dpb11 wild-type (Saccharomyces cerevisiae (budding yeast), UniProt P47027 1-764); test: EMSA; 320 nM required to bind more than half; EMSA: 1 nM 32P-DNA, 20 mM Tris-HCl pH 7.5, 0.1 mM EDTA, 0.2 mM DTT, 10% glycerol, 40 mg/ml BSA (so in the source), 5 min at 30 C, 0.7% native agarose in 0.5x TBE; GST pull-down: 40 mM Tris-HCl pH 7.5, 100 mM NaCl, 0.1 mM EDTA, 10% glycerol, 0.1% Triton X-100, 1 mM DTT, 0.1 mg/ml BSA, 25 C; conditions: protein: recombinant; (nickel column purification); label: 32P; blunt
T1 sequence: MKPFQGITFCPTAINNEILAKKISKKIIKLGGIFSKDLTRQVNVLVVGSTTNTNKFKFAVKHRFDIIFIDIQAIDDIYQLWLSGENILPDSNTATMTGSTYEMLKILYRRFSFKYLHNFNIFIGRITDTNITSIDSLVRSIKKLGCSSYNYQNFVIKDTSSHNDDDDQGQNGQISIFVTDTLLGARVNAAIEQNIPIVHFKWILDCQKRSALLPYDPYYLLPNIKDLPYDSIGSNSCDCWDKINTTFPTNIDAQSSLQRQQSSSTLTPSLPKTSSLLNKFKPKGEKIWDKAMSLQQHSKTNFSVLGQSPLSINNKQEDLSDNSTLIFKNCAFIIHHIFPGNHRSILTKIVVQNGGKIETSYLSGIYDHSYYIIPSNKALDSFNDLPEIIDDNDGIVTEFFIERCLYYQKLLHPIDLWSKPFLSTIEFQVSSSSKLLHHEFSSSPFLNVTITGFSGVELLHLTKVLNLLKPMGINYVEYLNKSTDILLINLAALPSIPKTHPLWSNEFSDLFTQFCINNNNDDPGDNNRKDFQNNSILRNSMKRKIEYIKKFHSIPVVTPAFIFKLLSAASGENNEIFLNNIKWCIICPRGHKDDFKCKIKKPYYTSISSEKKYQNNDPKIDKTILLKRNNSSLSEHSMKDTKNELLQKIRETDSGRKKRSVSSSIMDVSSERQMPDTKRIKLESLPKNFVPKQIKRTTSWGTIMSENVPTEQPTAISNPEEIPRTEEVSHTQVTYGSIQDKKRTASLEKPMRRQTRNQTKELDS

[2] = molecular target: TopBP1 full-length (Homo sapiens, UniProt Q92547 1-1522); test: EMSA; nearly 50% shifted at 20 nM; EMSA: 1 nM 32P-DNA, 20 mM Tris-HCl pH 7.5, 0.1 mM EDTA, 0.2 mM DTT, 10% glycerol, 40 mg/ml BSA (so in the source), 5 min at 30 C, 0.7% native agarose in 0.5x TBE; GST pull-down: 40 mM Tris-HCl pH 7.5, 100 mM NaCl, 0.1 mM EDTA, 10% glycerol, 0.1% Triton X-100, 1 mM DTT, 0.1 mg/ml BSA, 25 C; conditions: protein: recombinant, label: 32P
TopBP1 full-length, sequence (Q92547 whole entry): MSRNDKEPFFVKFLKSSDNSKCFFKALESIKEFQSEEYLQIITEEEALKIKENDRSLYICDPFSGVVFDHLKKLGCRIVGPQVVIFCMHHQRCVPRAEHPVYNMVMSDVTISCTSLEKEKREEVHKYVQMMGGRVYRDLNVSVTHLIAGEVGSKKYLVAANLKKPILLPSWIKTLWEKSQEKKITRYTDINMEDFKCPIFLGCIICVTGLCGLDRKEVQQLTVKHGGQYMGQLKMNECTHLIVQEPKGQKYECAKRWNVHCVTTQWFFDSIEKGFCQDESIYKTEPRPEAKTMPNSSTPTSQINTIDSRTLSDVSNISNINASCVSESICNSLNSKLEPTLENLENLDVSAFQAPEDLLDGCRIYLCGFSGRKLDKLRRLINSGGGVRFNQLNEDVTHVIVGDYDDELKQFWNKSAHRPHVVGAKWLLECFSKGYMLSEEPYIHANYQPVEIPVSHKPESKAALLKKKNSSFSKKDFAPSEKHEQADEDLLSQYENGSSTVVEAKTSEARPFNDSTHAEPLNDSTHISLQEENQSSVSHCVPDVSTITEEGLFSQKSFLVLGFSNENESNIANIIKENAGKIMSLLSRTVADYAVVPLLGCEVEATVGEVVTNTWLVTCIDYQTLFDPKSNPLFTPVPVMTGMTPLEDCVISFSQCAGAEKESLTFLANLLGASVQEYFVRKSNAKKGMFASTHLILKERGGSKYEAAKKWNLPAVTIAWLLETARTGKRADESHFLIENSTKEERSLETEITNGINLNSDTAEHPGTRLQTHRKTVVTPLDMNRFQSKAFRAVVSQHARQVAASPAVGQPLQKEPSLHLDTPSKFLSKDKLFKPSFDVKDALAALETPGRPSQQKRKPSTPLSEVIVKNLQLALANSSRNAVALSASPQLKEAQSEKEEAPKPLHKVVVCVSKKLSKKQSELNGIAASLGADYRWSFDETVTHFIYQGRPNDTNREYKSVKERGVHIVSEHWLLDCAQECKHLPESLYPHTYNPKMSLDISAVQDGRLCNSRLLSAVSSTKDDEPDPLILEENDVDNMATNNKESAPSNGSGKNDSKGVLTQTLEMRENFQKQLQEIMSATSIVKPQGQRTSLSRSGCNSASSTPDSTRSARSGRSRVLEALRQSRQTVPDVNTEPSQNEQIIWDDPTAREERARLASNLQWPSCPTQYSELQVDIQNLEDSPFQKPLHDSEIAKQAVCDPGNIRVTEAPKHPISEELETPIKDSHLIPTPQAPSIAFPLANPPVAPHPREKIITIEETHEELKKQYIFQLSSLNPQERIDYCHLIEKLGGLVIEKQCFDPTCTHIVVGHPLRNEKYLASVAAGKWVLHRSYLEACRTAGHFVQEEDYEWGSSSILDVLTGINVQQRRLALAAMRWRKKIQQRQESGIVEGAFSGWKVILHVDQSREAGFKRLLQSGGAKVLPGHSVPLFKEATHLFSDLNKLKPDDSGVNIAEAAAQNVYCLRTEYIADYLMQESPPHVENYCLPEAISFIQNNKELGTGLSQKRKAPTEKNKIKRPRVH

[3] = molecular target: T1, Dpb11 wild-type; test: EMSA; nearly 80% bound at 20 nM; EMSA: 1 nM 32P-DNA, 20 mM Tris-HCl pH 7.5, 0.1 mM EDTA, 0.2 mM DTT, 10% glycerol, 40 mg/ml BSA (so in the source), 5 min at 30 C, 0.7% native agarose in 0.5x TBE; GST pull-down: 40 mM Tris-HCl pH 7.5, 100 mM NaCl, 0.1 mM EDTA, 10% glycerol, 0.1% Triton X-100, 1 mM DTT, 0.1 mg/ml BSA, 25 C; conditions: protein: recombinant, (nickel column purification), label: 32P
[4] = molecular target: T1, Dpb11 wild-type; test: EMSA; more than half bound at 40 nM; EMSA: 1 nM 32P-DNA, 20 mM Tris-HCl pH 7.5, 0.1 mM EDTA, 0.2 mM DTT, 10% glycerol, 40 mg/ml BSA (so in the source), 5 min at 30 C, 0.7% native agarose in 0.5x TBE; GST pull-down: 40 mM Tris-HCl pH 7.5, 100 mM NaCl, 0.1 mM EDTA, 10% glycerol, 0.1% Triton X-100, 1 mM DTT, 0.1 mg/ml BSA, 25 C; conditions: protein: recombinant; (nickel column purification); label: 32P
[5] = molecular target: T1, Dpb11 wild-type; test: EMSA; 80 nM required to bind more than half; EMSA: 1 nM 32P-DNA, 20 mM Tris-HCl pH 7.5, 0.1 mM EDTA, 0.2 mM DTT, 10% glycerol, 40 mg/ml BSA (so in the source), 5 min at 30 C, 0.7% native agarose in 0.5x TBE; GST pull-down: 40 mM Tris-HCl pH 7.5, 100 mM NaCl, 0.1 mM EDTA, 10% glycerol, 0.1% Triton X-100, 1 mM DTT, 0.1 mg/ml BSA, 25 C; conditions: protein: recombinant, (nickel column purification), label: 32P
[6] = bubble: 31 bp and 22 bp duplexes flanking T80/T80 loop
[7] = fork 1:2, 31 bp duplex with two T80 arms

B1: blunt dsDNA (dsDNA)
DNA 1: ATGTCCTAGCAAGCCAGAATTCGGCAGCGTC
DNA 2: GACGCTGCCGAATTCTGGCTTGCTAGGACAT
Question: Which “apparent K (half saturation)” value [1] does the source give for B1 here?
Answer: ~320 nM

B2: bubble DNA (structured_DNA)
DNA 1: ATGTCCTAGCAAGCCAGAATTCGGCAGCGTCTTTTTTTTTTTTTTTTTTTTTTTTTTTTTTTTTTTTTTTTTTTTTTTTTTTTTTTTTTTTTTTTTTTTTTTTTTTTTTTTCCACGTCGGCGTCGCCACGAGC
DNA 2: GCTCGTGGCGACGCCGACGTGGTTTTTTTTTTTTTTTTTTTTTTTTTTTTTTTTTTTTTTTTTTTTTTTTTTTTTTTTTTTTTTTTTTTTTTTTTTTTTTTTGACGCTGCCGAATTCTGGCTTGCTAGGACAT
Question: For B2, which “apparent K (half saturation)” value [2, 6] is on record?
Answer: ~20 nM

Question: And the “apparent K (half saturation)” value [3, 6]?
Answer: < 20 nM

B3: ssDNA (dT80) (ssDNA)
DNA: TTTTTTTTTTTTTTTTTTTTTTTTTTTTTTTTTTTTTTTTTTTTTTTTTTTTTTTTTTTTTTTTTTTTTTTTTTTTTTTT
Question: Which “apparent K (half saturation)” value [4] does the source give for B3 here?
Answer: < 40 nM

B4: fork DNA (structured_DNA)
DNA 1: ATGTCCTAGCAAGCCAGAATTCGGCAGCGTCTTTTTTTTTTTTTTTTTTTTTTTTTTTTTTTTTTTTTTTTTTTTTTTTTTTTTTTTTTTTTTTTTTTTTTTTTTTTTTTT
DNA 2: TTTTTTTTTTTTTTTTTTTTTTTTTTTTTTTTTTTTTTTTTTTTTTTTTTTTTTTTTTTTTTTTTTTTTTTTTTTTTTTTGACGCTGCCGAATTCTGGCTTGCTAGGACAT
Question: For B4, which “apparent K (half saturation)” value [2, 7] is on record?
Answer: ~20 nM

Question: And the “apparent K (half saturation)” value [3, 7]?
Answer: < 20 nM

B5: 5'-tailed DNA (mixed)
DNA 1: B1 DNA 1
DNA 2: B4 DNA 2
Question: Which results are given for B5?
Answer: apparent K (half saturation) ([2]; 5' overhang 80 nt (T)): ~20 nM; apparent K (half saturation) ([5]; 5' overhang 80 nt (T)): ~80 nM

B6: 3'-tailed DNA (mixed)
DNA 1: B1 DNA 2
DNA 2: B4 DNA 1
Question: With B6 as the binder, how does the “apparent K (half saturation)” value ([2]; 3' overhang 80 nt (T)) read?
Answer: ~20 nM

Question: And the “apparent K (half saturation)” value ([5]; 3' overhang 80 nt (T))?
Answer: ~80 nM
